For this assay, the target named is T1, CA15-3抗原 (UniProt P15941 24-1097, limits assumed).
T1 construct: The origin of the antigen preparation used in the assays is not described; also called CA15-3(MUC1); CA15-3蛋白
Nature of the assay: BLI, AMC sensor, antibody immobilised at 10 ug/ml, CA15-3 antigen in serial dilution.

T1 sequence (P15941 24-1097 limits assumed): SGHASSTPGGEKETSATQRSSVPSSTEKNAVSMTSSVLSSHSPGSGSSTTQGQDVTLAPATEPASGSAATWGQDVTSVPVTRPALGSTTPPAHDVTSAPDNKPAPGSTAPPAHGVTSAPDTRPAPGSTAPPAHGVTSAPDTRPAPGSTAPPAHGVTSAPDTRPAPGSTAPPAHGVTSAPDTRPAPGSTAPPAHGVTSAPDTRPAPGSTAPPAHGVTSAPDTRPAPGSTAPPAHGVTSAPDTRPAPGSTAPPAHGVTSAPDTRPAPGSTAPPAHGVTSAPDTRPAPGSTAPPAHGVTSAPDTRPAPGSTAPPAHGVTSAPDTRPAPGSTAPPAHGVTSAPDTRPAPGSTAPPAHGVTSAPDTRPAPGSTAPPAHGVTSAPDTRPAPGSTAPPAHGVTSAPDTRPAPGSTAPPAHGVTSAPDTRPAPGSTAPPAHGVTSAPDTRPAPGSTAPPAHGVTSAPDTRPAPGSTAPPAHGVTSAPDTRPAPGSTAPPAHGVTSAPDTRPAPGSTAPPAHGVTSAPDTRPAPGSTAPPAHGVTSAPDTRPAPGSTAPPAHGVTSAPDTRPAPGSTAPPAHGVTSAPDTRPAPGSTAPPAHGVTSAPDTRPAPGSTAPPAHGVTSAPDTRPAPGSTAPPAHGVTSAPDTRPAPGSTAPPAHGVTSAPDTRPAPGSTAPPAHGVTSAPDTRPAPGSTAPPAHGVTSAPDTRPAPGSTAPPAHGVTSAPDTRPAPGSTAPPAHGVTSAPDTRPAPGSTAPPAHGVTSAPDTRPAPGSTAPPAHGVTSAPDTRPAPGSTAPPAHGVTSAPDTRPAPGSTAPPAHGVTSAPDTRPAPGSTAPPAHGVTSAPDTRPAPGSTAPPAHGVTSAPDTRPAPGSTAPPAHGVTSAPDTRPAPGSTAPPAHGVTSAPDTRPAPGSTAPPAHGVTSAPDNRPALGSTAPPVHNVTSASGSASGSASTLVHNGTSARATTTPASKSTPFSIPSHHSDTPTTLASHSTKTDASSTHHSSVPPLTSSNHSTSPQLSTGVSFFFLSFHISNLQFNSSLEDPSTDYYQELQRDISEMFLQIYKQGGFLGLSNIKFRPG

In the case of 对照 (antibody), the Kd amounted to 84.5 nM, the koff is 0.00375 s⁻¹ and the kon turned out to be 44400 M⁻¹ s⁻¹.

B1: Anti-CA15-3 3F10 (antibody, V domains shown)
VH: EVQLVESGGGLVKPGGSLKLSCAASGFAFSNYPMSWVRQTPEMRLEWVAYISSGGDSTYYPGTVKGRFTISRDNAKSALYLQMSSLKSEDTAMYYCTFWFRGFDYWGQGTTLTVSS
VL: DVLMTQIPLSLPVSLGDQASLSCRSSQSIVHSNGNTYLEWYLQKPGQSPKLLIYKVSNRFSGVPDRFSGSGSGTDFTLKISRVEAEDLGVYYCFQGSHVPYTFGGGTKLEIK
The molecule B1 had a Kd of 5.17 nM, a koff of 0.000161 s⁻¹ and a kon of 31100 M⁻¹ s⁻¹.

The record behind these values is CN115710315A (DONGGUAN PENGZHI BIOTECHNOLOGY CO LTD, dated 2023).
